PMC2655719 (PLoS ONE, 2009)

Assays:
Details in all cases: both partners purified
[1] = biological target: T1, H-Ras (recombinant, guanine nucleotide-loaded) (UniProt P01112 1-189); experiment: ITC; 300 µM RGS14(RBD1.RBD2) titrated into 20 µM H-Ras loaded with GDP; 20°C; 20 mM HEPES pH 7.5, 150 mM NaCl, 1 mM MgCl2, 0.5 mM TCEP; single binding site model
T1 construct: H-Ras expressed from pPROEXHTb(H-Ras); Treated with calf intestinal phosphatase, EDTA, TEV protease and GPPNHP before gel filtration; used loaded with GPPNHP or with GDP (two assays); also called H-Ras(GPPNHP); H-Ras(GDP); source: E. coli BL21(DE3), purified (Ni-NTA, gel filtration)

[2] = biological target: T1, H-Ras (recombinant, guanine …); experiment: ITC; 300 µM RGS14(RBD1.RBD2) titrated into 20 µM H-Ras loaded with GPPNHP; 20°C; 20 mM HEPES pH 7.5, 150 mM NaCl, 1 mM MgCl2, 0.5 mM TCEP; single binding site model
[3] = biological target: T1, H-Ras (recombinant, guanine …); experiment: ITC; 300 µM RGS14(RBD1.RBD2) titrated into 20 µM H-Ras loaded with GDP; 20°C; 20 mM HEPES pH 7.5, 150 mM NaCl, 1 mM MgCl2, 0.5 mM TCEP; single binding site model; remark: listed apart in the source
[4] = biological target: T1, H-Ras (recombinant, guanine …); experiment: ITC; 300 µM RGS14(RBD1.RBD2) titrated into 20 µM H-Ras loaded with GPPNHP; 20°C; 20 mM HEPES pH 7.5, 150 mM NaCl, 1 mM MgCl2, 0.5 mM TCEP; single binding site model; remark: listed apart in the source

T1 sequence (P01112 whole entry): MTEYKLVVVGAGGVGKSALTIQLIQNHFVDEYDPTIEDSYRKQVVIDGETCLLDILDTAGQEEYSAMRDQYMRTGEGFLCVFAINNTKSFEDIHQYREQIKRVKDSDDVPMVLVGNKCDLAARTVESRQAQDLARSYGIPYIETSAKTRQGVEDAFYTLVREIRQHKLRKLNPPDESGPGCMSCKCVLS

B1: RGS14(RBD1.RBD2) (domain or fragment)
chain: PGKYCCVYLPDGTASLALARPGLTIRDMLAGICEKRGLSLPDIKVYLVGNEQALVLDQDCTVLADQEVRLENRITFELELTALERVVRISAKPTKRLQEALQPILEKHGLSPLEVVLHRPGEKQPLDLGKLVSSVAAQRLVLDTLPG
Binder B1 has a Kd [1] of over 200 µM, a Kd [2] of about 10 µM and a Ka [3] of 23500 M⁻¹. The dH [3] was -7.1 ± 0.5 kcal/M, the “stoichiometry N” value [3] was 1.05 ± 0.06 and the Ka [4] was 101000 M⁻¹. For the same binder, the dH [4] was -1.81 ± 0.04 kcal/M and the “stoichiometry N” value [4] was 1.03 ± 0.02.
